Assay results from the supplement of paper PMC10567573.

B1: LOC100129726 (parent)
chain: AKAADSPTRNDLESGLGHFSLRVH

Variants of: B1
Assay: protein stability index of a GFP-peptide fusion (GPS, HEK-293T) (PSI 1-6); higher = more stable
Conditions: c terminus: a fixed tail appended
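Note: lentivirally expressed fusions sorted by FACS into six bins by GFP to DsRed ratio, PSI derived from sequencing read proportions per bin multiplied by bin number.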

Variant	protein stability index
AKAADSPTRNDNESGLGHFSLRVH [L12N]	4.16
AKAADSPTRNDAESGLGHFSLRVH [L12A]	3.47
AKAADSPTRNDPESGLGHFSLRVH [L12P]	3.51
AKAADSPTRNDKESGLGHFSLRVH [L12K]	3.92
AKAADSPTRNDTESGLGHFSLRVH [L12T]	2.91
AKAADSPTRNDVESGLGHFSLRVH [L12V]	3.62
AKAADSPTRNDQESGLGHFSLRVH [L12Q]	4.45
AKAADSPTRNDCESGLGHFSLRVH [L12C]	2.82
AKAADSPTRNDGESGLGHFSLRVH [L12G]	3.52
AKAADSPTRNDMESGLGHFSLRVH [L12M]	3.78
AKAADSPTRNDDESGLGHFSLRVH [L12D]	3.9
AKAADSPTRNDRESGLGHFSLRVH [L12R]	3.76
AKAADSPTRNDEESGLGHFSLRVH [L12E]	4
AKAADSPTRNDHESGLGHFSLRVH [L12H]	3.57
AKAADSPTRNDIESGLGHFSLRVH [L12I]	3
AKAADSPTRNDSESGLGHFSLRVH [L12S]	4.46
AKAADSPTRNDWESGLGHFSLRVH [L12W]	2.6
AKAADSPTRNDYESGLGHFSLRVH [L12Y]	1.93
AKAADSPTRNDFESGLGHFSLRVH [L12F]	3.06
AKAADSPTRNDLEAGLGHFSLRVH [S14A]	3.28
AKAADSPTRNDLEDGLGHFSLRVH [S14D]	3.85
AKAADSPTRNDLECGLGHFSLRVH [S14C]	2.34
AKAADSPTRNDLEFGLGHFSLRVH [S14F]	2.25
AKAADSPTRNDLEQGLGHFSLRVH [S14Q]	2.94

Variant	protein stability index
AKAADSPTRNDLEHGLGHFSLRVH [S14H]	3.21
AKAADSPTRNDLERGLGHFSLRVH [S14R]	2.78
AKAADSPTRNDLEMGLGHFSLRVH [S14M]	2.5
AKAADSPTRNDLEWGLGHFSLRVH [S14W]	1.36
AKAADSPTRNDLEGGLGHFSLRVH [S14G]	2.9
AKAADSPTRNDLEPGLGHFSLRVH [S14P]	2.85
AKAADSPTRNDLEEGLGHFSLRVH [S14E]	3.81
AKAADSPTRNDLETGLGHFSLRVH [S14T]	2.94
AKAADSPTRNDLENGLGHFSLRVH [S14N]	3.68
AKAADSPTRNDLEYGLGHFSLRVH [S14Y]	3.97
AKAADSPTRNDLEKGLGHFSLRVH [S14K]	3.36
AKAADSPTRNDLELGLGHFSLRVH [S14L]	2.57
AKAADSPTRNDLEVGLGHFSLRVH [S14V]	2.63
AKAADSPTRNDLEIGLGHFSLRVH [S14I]	2.38
AKAADSPVRNDLESGLGHFSLRVH [T8V]	4.01
AKAADSPIRNDLESGLGHFSLRVH [T8I]	2.45
AKAADSPKRNDLESGLGHFSLRVH [T8K]	2.73
AKAADSPDRNDLESGLGHFSLRVH [T8D]	3.31
AKAADSPNRNDLESGLGHFSLRVH [T8N]	3.36
AKAADSPGRNDLESGLGHFSLRVH [T8G]	3.61
AKAADSPFRNDLESGLGHFSLRVH [T8F]	2.35
AKAADSPYRNDLESGLGHFSLRVH [T8Y]	2.75
AKAADSPSRNDLESGLGHFSLRVH [T8S]	2.74
AKAADSPCRNDLESGLGHFSLRVH [T8C]	2.07

Variant	protein stability index
AKAADSPARNDLESGLGHFSLRVH [T8A]	2.95
AKAADSPLRNDLESGLGHFSLRVH [T8L]	2.13
AKAADSPRRNDLESGLGHFSLRVH [T8R]	2.53
AKAADSPPRNDLESGLGHFSLRVH [T8P]	3.38
AKAADSPHRNDLESGLGHFSLRVH [T8H]	2.63
AKAADSPMRNDLESGLGHFSLRVH [T8M]	2.12
AKAADSPWRNDLESGLGHFSLRVH [T8W]	1.98
AKAADSPQRNDLESGLGHFSLRVH [T8Q]	3.1
AKAADSPTRNDLESRLGHFSLRVH [G15R]	2.06
AKAADSPTRNDLESQLGHFSLRVH [G15Q]	3.81
AKAADSPTRNDLESWLGHFSLRVH [G15W]	1.57
AKAADSPTRNDLESPLGHFSLRVH [G15P]	2.79
AKAADSPTRNDLESHLGHFSLRVH [G15H]	3.26
AKAADSPTRNDLESSLGHFSLRVH [G15S]	2.86
AKAADSPTRNDLESALGHFSLRVH [G15A]	2.4
AKAADSPTRNDLESNLGHFSLRVH [G15N]	2.82
AKAADSPTRNDLESFLGHFSLRVH [G15F]	1.74
AKAADSPTRNDLESELGHFSLRVH [G15E]	2.82
AKAADSPTRNDLESVLGHFSLRVH [G15V]	2.48
AKAADSPTRNDLESTLGHFSLRVH [G15T]	2.67
AKAADSPTRNDLESDLGHFSLRVH [G15D]	3.51
AKAADSPTRNDLESCLGHFSLRVH [G15C]	2.18
AKAADSPTRNDLESKLGHFSLRVH [G15K]	2.93
AKAADSPTRNDLESYLGHFSLRVH [G15Y]	2.4

Variant	protein stability index
AKAADSPTRNDLESLLGHFSLRVH [G15L]	2.37
AKAADSPTRNDLESMLGHFSLRVH [G15M]	2.23
AKAADSPTRNDLESILGHFSLRVH [G15I]	1.86
AKAADSPTRKDLESGLGHFSLRVH [N10K]	2.98
AKAADSPTRFDLESGLGHFSLRVH [N10F]	2.38
AKAADSPTRHDLESGLGHFSLRVH [N10H]	3.53
AKAADSPTRCDLESGLGHFSLRVH [N10C]	2.13
AKAADSPTRVDLESGLGHFSLRVH [N10V]	2.56
AKAADSPTRQDLESGLGHFSLRVH [N10Q]	3.87
AKAADSPTRGDLESGLGHFSLRVH [N10G]	2.77
AKAADSPTRYDLESGLGHFSLRVH [N10Y]	1.97
AKAADSPTRIDLESGLGHFSLRVH [N10I]	1.78
AKAADSPTRMDLESGLGHFSLRVH [N10M]	2.51
AKAADSPTRADLESGLGHFSLRVH [N10A]	3.06
AKAADSPTRDDLESGLGHFSLRVH [N10D]	3.61
AKAADSPTRSDLESGLGHFSLRVH [N10S]	3.17
AKAADSPTRPDLESGLGHFSLRVH [N10P]	4
AKAADSPTRRDLESGLGHFSLRVH [N10R]	3.17
AKAADSPTRTDLESGLGHFSLRVH [N10T]	2.79
AKAADSPTRWDLESGLGHFSLRVH [N10W]	1.88
AKAADSPTRLDLESGLGHFSLRVH [N10L]	2.88
AKAADSPTRNDLESGAGHFSLRVH [L16A]	3.97
